# Test results published in doi:10.1101/2022.06.27.497739.
# Like-named read-outs stand apart in the source and are kept apart here.
# How the values were obtained:
# [1] = biological target: Rpt1-I191AzF-Cy3 base (budding yeast (S. cerevisiae)) (UniProt P33299); assay: FRET or BRET
# [2] = biological target: Rpt1-I191AzF-Cy3 base (budding yeast (S. cerevisiae)) (UniProt P33299); assay: FRET or BRET; remark: listed apart in the source
substance,measurement,setting,value
polyubiquitinated titin-I27^V15P-Tail substrate labeled with Cy5 on its unstructured initiation domain (from UniProt P0CG63 1-76),time constant (τ) of tail engagement,[1],16.4 s
same,time constant (τ) of tail engagement,[2],10.4 s
